Patent US20230227548A1 (published 2023)
Residue numbers refer to the chain shown, from its start. Numbers in names are those of the source.

T1: cyno GPRC5D (cyno, UniProt Q9NZD1 1-343 (human entry))
T1 construct: on transfected HEK293F or Daudi cells; also called cynomolgus monkey GPRC5D
T1 chain: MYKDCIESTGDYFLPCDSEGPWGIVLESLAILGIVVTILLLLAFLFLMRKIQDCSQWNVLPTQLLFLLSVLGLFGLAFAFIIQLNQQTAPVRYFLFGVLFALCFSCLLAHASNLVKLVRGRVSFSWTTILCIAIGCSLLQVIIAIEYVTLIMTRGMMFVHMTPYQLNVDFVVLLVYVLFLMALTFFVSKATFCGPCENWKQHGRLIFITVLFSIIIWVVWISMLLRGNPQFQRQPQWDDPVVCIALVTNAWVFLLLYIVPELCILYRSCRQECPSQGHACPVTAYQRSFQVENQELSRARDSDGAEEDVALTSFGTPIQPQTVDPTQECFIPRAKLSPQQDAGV

B1: GC5B252 (antibody, V domains shown)
VH: QVQLVQSGAEVKKPGSSVKVSCKASGGTFSSYGISWVRQAPGQGLEWMGGIIPIFGNINYAQKFQGRVTITADESTSTAYMELSSLRSEDTAVYYCARVSRRFKRFAYYFDYWGQGTLVTVSS
VL: EIVLTQSPATLSLSPGERATLSCRASQSVSSYLAWYQQKPGQAPRLLIYDASNRATGIPARFSGSGSGTDFTLTISSLEPEDFAVYYCQQRSNWPLTFGQGTKVEIK
B2: GC5B163 (antibody, V domains shown)
VH: EVQLVQSGAEVKKPGESLKISCKGSGYSFTSYWIGWVRQMPGKGLEWMGIIYPGDSDTRYSPSFQGQVTISADKSISTAYLQWSSLKASDTAMYYCARVYSFGGRHKALFDYWGQGTLVTVSS
VL: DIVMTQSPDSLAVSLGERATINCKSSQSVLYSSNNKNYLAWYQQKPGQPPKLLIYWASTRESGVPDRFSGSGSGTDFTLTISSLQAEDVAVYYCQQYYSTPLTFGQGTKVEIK
B3: GC5B540 (antibody, V domains shown)
VH: QVTLKESGPVLVKPTETLTLTCTVSGFSLTSYNVHWIRQPPGKALEWLAVIWAGGSTNYNSALMSRLTISKDTSKSQVVLTMTNMRAEDTATYYCARDGIRLRFAYWGQGTLVTVSS
VL: EIVMTQSPATLSVSPGERATLSCKASQNVATHVGWYQQKPGQAPRLLIYSASYRYSGIPARFSGSGSGTEFTLTISSLQSEDFAVYYCQQYNRYPYTFGQGTKLEIK
notes: HFA of GC5B396: GC5H240 + GC5L58; IgG4
B4: GCDB32 (bispecific antibody, IgG4, V domains shown)
VH 1: EVQLVESGGGLVQPGGSLRLSCAASGFTFNTYAMNWVRQAPGKGLEWVARIRSKYNNYATYYAASVKGRFTISRDDSKNSLYLQMNSLKTEDTAVYYCARHGNFGNSYVSWFAYWGQGTLVTVSS
VL 1: QTVVTQEPSLTVSPGGTVTLTCRSSTGAVTTSNYANWVQQKPGQAPRGLIGGTNKRAPGTPARFSGSLLGGKAALTLSGVQPEDEAEYYCALWYSNLWVFGGGTKLTVL
VH 2: not shown
VL 2: not shown
notes: IgG4-PAA by Fab arm exchange; first VH/VL = CD3B219 arm (IgG4 S228P, L234A, L235A, F405L, R409K); also called GC5B81 x CD3B219
B5: GCDB45 (bispecific antibody, V domains shown)
VH 1: B4 VH 1
VL 1: B4 VL 1
VH 2: EVQLVQSGAEVKKPGESLKISCKGSGYSFTSYWIGWVRQMPGKGLEWMGIIYPGDSDTRYSPSFQGQVTISADKSISTAYLQWSSLKASDTAMYYCARIGFYGRSFRIFDYWGQGTLVTVSS
VL 2: B1 VL
B6: GCDB72 (bispecific antibody, IgG4, V domains shown)
VH 1: B4 VH 1
VL 1: B4 VL 1
VH 2: QVQLVQSGAEVKKPGASVKVSCKASGYSFTGYTMNWVRQAPGQGLEWMGLINPYNSDTNYAQKLQGRVTMTTDTSTSTAYMELRSLRSDDTAVYYCARVALRVALDYWGQGTLVTVSS
VL 2: DIQMTQSPSSLSASVGDRVTITCKASQNVATHVGWYQQKPGKAPKRLIYSASYRYSGVPSRFSGSGSGTEFTLTISNLQPEDFATYYCQQYNRYPYTFGQGTKLEIK
B7: GCDB61 (bispecific antibody, IgG4, V domains shown)
VH 1: B4 VH 1
VL 1: B4 VL 1
VH 2: B2 VH with W33F, D55K
VL 2: B1 VL
notes: IgG4-PAA; first VH/VL = CD3B219 arm (adds F405L, R409K), second = GC5B483 arm; also called GC5B483 x CD3B219
B8: GCDB53 (bispecific antibody, IgG4, V domains shown)
VH 1: B4 VH 1
VL 1: B4 VL 1
VH 2: not shown
VL 2: not shown
notes: IgG4-PAA; first VH/VL = CD3B219 arm (adds F405L, R409K), second = GC5B465 arm; also called GC5B465 x CD3B219

How the values were obtained:
cyno GPRC5D [1] = target: T1, cyno GPRC5D; assay: FACS, cyno GPRC5D cells, 1 ug/ml
human GPRC5D [2] = target: T2, human GPRC5D (human, UniProt Q9NZD1 1-345); assay: FACS, human GPRC5D cells
T2 construct: on transfected HEK293 or RBL cells, or endogenous on MM1R, H929, OPM2, LP-1, JIM3 and patient plasma cells; also called G-protein coupled receptor family C group 5 member D; hGPRC5D
T2 sequence (Q9NZD1 whole entry): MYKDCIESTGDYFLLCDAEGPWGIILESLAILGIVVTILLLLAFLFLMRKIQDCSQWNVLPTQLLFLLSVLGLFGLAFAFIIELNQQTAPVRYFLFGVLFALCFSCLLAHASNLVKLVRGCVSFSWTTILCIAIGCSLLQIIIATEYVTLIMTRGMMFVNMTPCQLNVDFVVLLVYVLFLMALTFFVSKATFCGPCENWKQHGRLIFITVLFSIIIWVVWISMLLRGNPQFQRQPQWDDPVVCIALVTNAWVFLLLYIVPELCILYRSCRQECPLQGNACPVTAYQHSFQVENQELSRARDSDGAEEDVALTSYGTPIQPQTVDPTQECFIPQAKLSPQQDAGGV

human GPRC5D [3] = target: T2, human GPRC5D; assay: cell-based or functional assay
human GPRC5D [4] = target: T2, human GPRC5D; assay: cell-based or functional assay; remark: listed apart in the source
human GPRC5D [5] = target: T2, human GPRC5D; assay: cell-based or functional assay; remark: listed apart in the source
human GPRC5D [6] = target: T2, human GPRC5D; assay: FACS, MM patient MM305BM bone marrow MNCs (plasma cells)
human GPRC5D [7] = target: T2, human GPRC5D; assay: FACS, MM patient MM303BM bone marrow MNCs (plasma cells)
cyno GPRC5D [8] = target: T1, cyno GPRC5D; assay: cell-based or functional assay
cyno GPRC5D [9] = target: T1, cyno GPRC5D; assay: cell-based or functional assay

Binder	T-cell redirection cytotoxicity EC50, human GPRC5D HEK cells (human GPRC5D [3]) [nM]	T-cell mediated cytotoxicity EC50, H929 cells (human GPRC5D [4]) [nM]	T-cell mediated cytotoxicity EC50, LP-1 (human GPRC5D [4]) [nM]	T-cell mediated cytotoxicity EC50, MM1R (human GPRC5D [4]) [nM]	T-cell mediated cytotoxicity EC50, OPM2 (human GPRC5D [4]) [nM]	EC50 (human GPRC5D [6]) [nM]	EC50 (human GPRC5D [7]) [nM]	T-cell redirection cytotoxicity EC50, cyno GPRC5D HEK cells (cyno GPRC5D [9]) [nM]	also measured
B1									MFI (cyno GPRC5D [1]): 63300
B2									MFI (cyno GPRC5D [1]): 22000
B3									binding result (human GPRC5D [2]): binds
B4	0.04	0.45	1.02	0.04	0.98	70.4	16.1		T-cell mediated cytotoxicity EC50, H929 (n = 5) (human GPRC5D [5]): 0.39 nM; T-cell mediated cytotoxicity EC50, MM1R (n = 3) (human GPRC5D [5]): 0.12 nM
B5									T cell mediated target cell killing, Cyno GPRC5D EC50 (cyno GPRC5D [8]): 2.82 nM; T-cell mediated cytotoxicity EC50, H929 (n = 5) (human GPRC5D [5]): 2.25 nM; T-cell mediated cytotoxicity EC50, MM1R (n = 3) (human GPRC5D [5]): 0.91 nM
B6								3.41	
B7	0.03	0.39	1.67	0.06	1.46	6.93	5.53	1.22	
B8	0.08	0.69	1.58	0.28	2.83	10.2	3.98	0.36	
